Laboratory results: US7118877
Like-named read-outs stand apart in the source and are kept apart here.

Columns and labels:
Ac-LEHD-Afc [1] = tested on: T1, Ac-LEHD-Afc
T1 sequence: LEHD

Ac-VEID-Afc = tested on: T2, Ac-VEID-Afc
T2 sequence: VEID

Ac-WEHD-Afc = tested on: T3, Ac-WEHD-Afc
T3 sequence: WEHD

Ac-DEVD-Afc = tested on: T4, Ac-DEVD-Afc
T4 sequence: DEVD

Ac-IETD-Afc = tested on: T5, Ac-IETD-Afc
T5 sequence: IETD

Ac-LEHD-Afc [2] = target: T6, Ac-LEHD-Afc
T6 chain: LEHD

Caspase 1
Optimum substrate at pH 7.2 (rate of AFC release, fluorogenic cleavage assay) (Ac-LEHD-Afc [1]): Ac-LEHD-Afc (SEQ ID NO:5),
Optimum substrate at pH 7.2 (rate of AFC release, fluorogenic cleavage assay) (Ac-VEID-Afc): Ac-VEID-Afc (SEQ ID NO:6)
Optimum substrate at pH 7.2 (rate of AFC release, fluorogenic cleavage assay) (Ac-WEHD-Afc): Ac-WEHD-Afc (SEQ ID NO:4),

Caspase 2
Optimum substrate at pH 7.2 (rate of AFC release, fluorogenic cleavage assay) (Ac-LEHD-Afc [1]): Ac-LEHD-Afc (SEQ ID NO:5)

Caspase 3
Optimum substrate at pH 7.2 (rate of AFC release, fluorogenic cleavage assay) (Ac-DEVD-Afc): Ac-DEVD-Afc (SEQ ID NO:1)

Caspase 6
Optimum substrate at pH 7.2 (rate of AFC release, fluorogenic cleavage assay) (Ac-IETD-Afc): Ac-IETD-Afc (SEQ ID NO:2)

Caspase 7
Optimum substrate at pH 7.2 (rate of AFC release, fluorogenic cleavage assay) (Ac-DEVD-Afc): Ac-DEVD-Afc (SEQ ID NO:1)

Caspase 8
Optimum substrate at pH 7.2 (rate of AFC release, fluorogenic cleavage assay) (Ac-LEHD-Afc [1]): Ac-LEHD-Afc (SEQ ID NO:5

Caspase 10
Optimum substrate at pH 7.2 (rate of AFC release, fluorogenic cleavage assay) (Ac-IETD-Afc): Ac-IETD-Afc (SEQ ID NO:2),
Optimum substrate at pH 7.2 (rate of AFC release, fluorogenic cleavage assay) (Ac-LEHD-Afc [1]): Ac-LEHD-Afc (SEQ ID NO:5)

B1: Caspase 9 (protein)
chain: MDEADRRLLRRCRLRLVEELQVDQLWDALLSRELFRPHMIEDIQRAGSGSRRDQARQLIIDLETRGSQALPLFISCLEDTGQDMLASFLRTNRQAAKLSKPTLENLTPVVLRPEIRKPEVLRPETPRPVDIGSGGFGDVGALESLRGNADLAYILSMEPCGHCLIINNVNFCRESGLRTRTGSNIDCEKLRRRFSSLHFMVEVKGDLTAKKMVLALLELAQQDHGALDCCVVVILSHGCQASHLQFPGAVYGTDGCPVSVEKIVNIFNGTSCPSLGGKPKLFFIQACGGEQKDHGFEVASTSPEDESPGSNPEPDATPFQEGLRTFDQLDAISSLPTPSDIFVSYSTFPGFVSWRDPKSGSWYVETLDDIFEQWAHSEDLQSLLLRVANAVSVKGIYKQMPGCFNFLRKKLFFKTS
Optimum substrate at pH 7.2 (rate of AFC release, fluorogenic cleavage assay) (Ac-LEHD-Afc [2]): Ac-LEHD-Afc (SEQ ID NO:5
